In publication PMC3864023:

Tests used:
[1] = molecular target: ParC WT;ParE (Escherichia coli;Escherichia coli, UniProt P0AFI2;P20083 1-752;1-630, |); assay: fluorescence anisotropy
[2] = molecular target: ParC R564D;ParE (Escherichia coli;Escherichia coli, UniProt P0AFI2;P20083 1-752;1-630, R564D|); assay: fluorescence anisotropy

B1: 45mer duplex with strong topo II site, FAM (dsDNA)
DNA 1: GCCTATCCGAGGATGACGATGCGCGCATCGTCATACAGCGAATGG
DNA 2: CCATTCGCTGTATGACGATGCGCGCATCGTCATCCTCGGATAGGC
Kd [1]: 25 5 | Kd [2]: 15 3
